From PMC4914108 (Nucleic Acids Research, 2016)
Changes are numbered by the printed parent chain. Like-named read-outs stand apart in the source and are kept apart here.

T1: RacA DBD K15A (Bacillus subtilis, UniProt P45870 1-70, K15A)
T1 sequence: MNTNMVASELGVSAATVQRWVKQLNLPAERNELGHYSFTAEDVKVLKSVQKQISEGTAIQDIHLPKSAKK

T2: RacA FL (Bacillus subtilis, UniProt P45870 1-184)
T2 sequence: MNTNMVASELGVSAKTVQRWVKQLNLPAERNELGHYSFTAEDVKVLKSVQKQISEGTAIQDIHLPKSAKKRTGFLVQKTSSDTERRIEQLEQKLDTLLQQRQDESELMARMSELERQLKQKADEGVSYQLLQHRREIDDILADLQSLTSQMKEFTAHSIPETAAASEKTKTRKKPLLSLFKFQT

T3: RacA DBD (Bacillus subtilis, UniProt P45870 1-70)
T3 sequence: T1 sequence with A15K

T4: RacA DBD R30A (Bacillus subtilis, UniProt P45870 1-70, R30A)
T4 sequence: T1 sequence with A15K, R30A

T5: RacA C-domain (Bacillus subtilis, UniProt P45870 71-184)
T5 sequence: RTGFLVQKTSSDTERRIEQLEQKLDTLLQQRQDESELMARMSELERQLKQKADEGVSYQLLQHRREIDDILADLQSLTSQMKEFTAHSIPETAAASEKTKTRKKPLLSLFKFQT

T6: RacA from FL crystals (proteolyzed) (Bacillus subtilis, UniProt P45870 1-64)
T6 sequence: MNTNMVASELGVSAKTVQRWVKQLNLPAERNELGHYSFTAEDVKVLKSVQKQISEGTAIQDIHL

B1: RacA C-terminal region, RacA(71-184) (domain or fragment, B. subtilis, UniProt P45870 71-184, looked up)
chain: T5 sequence
B2: DivIVA C-terminal domain, DivIVA(66-164) (domain or fragment, B. subtilis, UniProt P71021 66-164, looked up)
chain: TLNKSILVAQEAAEDVKRNSQKEAKLIVREAEKNADRIINESLSKSRKIAMEIEELKKQSKVFRTRFQMLIEAQLDLLKNDDWDHLLEYEVDAVFEEKE
B3: 14mer ram centromere site (FP) (dsDNA)
DNA 1: TGACGCCGGCGTCA
DNA 2: TGACGCCGGCGTCA
B4: 14mer ram site, 5-bromouracil (dsDNA)
DNA 1: TGACGCCGGCGTCA
DNA 2: TGACGCCGGCGTCA
modifications: thymines replaced with 5-bromouracil

Columns and labels:
[1] = biological target: B2; assay: ITC
[2] = biological target: B1; assay: ITC
[3] = biological target: B1; assay: ITC; remark: listed apart in the source
RacA DBD K15A = biological target: T1, RacA DBD K15A; assay: fluorescence polarization
RacA FL = biological target: T2, RacA FL; assay: fluorescence polarization
RacA DBD = biological target: T3, RacA DBD; assay: fluorescence polarization
RacA DBD R30A = biological target: T4, RacA DBD R30A; assay: fluorescence polarization
RacA C-domain = biological target: T5, RacA C-domain; assay: fluorescence polarization
[4] = biological target: T6, RacA from FL crystals (proteolyzed); assay: X-ray crystallography

Binder: B1
stoichiometry N [1]: 1

Binder: B2
Kd [2]: 1.9 µM
Kd [3]: 1.5 µM
stoichiometry N [3]: 1

Binder: B3
Kd (RacA DBD K15A): ~50 µM
Kd (RacA FL): 0.0584 ± 0.0003 µM
Kd (RacA DBD): 9.2 ± 4 µM
Kd (RacA DBD R30A): ~50 µM
binding result (RacA C-domain): no binding

Binder: B4
binding result [4]: binds
